In PMC10397247:
Where two headings read alike, the source gives them in different places.

T1: 4H953-bA
T1 chain: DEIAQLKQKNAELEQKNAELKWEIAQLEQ

T2: 4H3843-bA
T2 chain: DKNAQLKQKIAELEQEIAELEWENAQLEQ

T3: 4H338-bA
T3 chain: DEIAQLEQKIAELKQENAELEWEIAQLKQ

T4: 4H568-bA
T4 chain: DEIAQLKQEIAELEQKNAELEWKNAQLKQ

T5: 4H883-bA
T5 chain: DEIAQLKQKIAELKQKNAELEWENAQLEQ

T6: 4H908-bA
T6 chain: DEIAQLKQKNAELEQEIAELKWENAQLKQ

T7: 4H754-bA
T7 chain: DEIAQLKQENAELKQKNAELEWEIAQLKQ

T8: 4H607-bA
T8 chain: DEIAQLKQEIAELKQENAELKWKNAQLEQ

T9: 4H3606-bA
T9 chain: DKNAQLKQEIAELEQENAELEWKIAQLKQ

T10: 4H4001-bA
T10 chain: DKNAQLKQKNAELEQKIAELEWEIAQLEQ

T11: 4H3354-bA
T11 chain: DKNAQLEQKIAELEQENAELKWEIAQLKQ

T12: 4H3782-bA
T12 chain: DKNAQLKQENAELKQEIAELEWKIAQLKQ

T13: 4H3855-bA
T13 chain: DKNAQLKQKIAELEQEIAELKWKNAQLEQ

T14: 4H797-bA
T14 chain: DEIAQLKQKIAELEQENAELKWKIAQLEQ

T15: 4H687-bA
T15 chain: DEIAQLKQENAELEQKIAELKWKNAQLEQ

T16: 4H3427-bA
T16 chain: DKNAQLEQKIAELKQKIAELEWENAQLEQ

T17: 4H918-bA
T17 chain: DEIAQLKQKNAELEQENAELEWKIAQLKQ

T18: 4H72-bA
T18 chain: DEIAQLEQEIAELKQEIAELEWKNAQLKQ

T19: 4H967-bA
T19 chain: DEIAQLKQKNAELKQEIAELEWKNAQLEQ

T20: 4H454-bA
T20 chain: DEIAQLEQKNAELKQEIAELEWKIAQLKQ

T21: 4H717-bA
T21 chain: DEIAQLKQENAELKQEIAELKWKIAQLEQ

T22: 4H331-bA
T22 chain: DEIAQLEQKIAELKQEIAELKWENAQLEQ

T23: 4H370-bA
T23 chain: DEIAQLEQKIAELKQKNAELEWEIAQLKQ

T24: 4H462-bA
T24 chain: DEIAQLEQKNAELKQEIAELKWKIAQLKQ

T25: P6-AA-1HGe-T
T25 chain: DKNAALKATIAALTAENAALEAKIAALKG

T26: P6-AA-1HGe-W
T26 chain: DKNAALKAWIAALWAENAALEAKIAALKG

T27: P6-AA-1HGe-S
T27 chain: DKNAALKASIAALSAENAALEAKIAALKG

T28: P6-AA-1HGe-A
T28 chain: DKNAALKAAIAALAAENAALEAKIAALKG

T29: P6-AA-1HGe-R
T29 chain: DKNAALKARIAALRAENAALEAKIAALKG

T30: P6-AA-1HGe-M
T30 chain: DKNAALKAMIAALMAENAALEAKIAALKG


Key:
4H953-bA = biological target: T1, 4H953-bA; test: two-hybrid library CCNG1;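 further: natural log of median RNA to DNA barcode read ratio; higher means stronger binding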
4H3843-bA = biological target: T2, 4H3843-bA; test: two-hybrid library CCNG1;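 further: natural log of median RNA to DNA barcode read ratio; higher means stronger binding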
4H338-bA = biological target: T3, 4H338-bA; test: two-hybrid library CCNG1;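 further: natural log of median RNA to DNA barcode read ratio; higher means stronger binding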
4H568-bA = biological target: T4, 4H568-bA; test: two-hybrid library CCNG1;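 further: natural log of median RNA to DNA barcode read ratio; higher means stronger binding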
4H883-bA = biological target: T5, 4H883-bA; test: two-hybrid library CCNG1
4H908-bA = biological target: T6, 4H908-bA; test: two-hybrid library CCNG1
4H754-bA = biological target: T7, 4H754-bA; test: two-hybrid library CCNG1
4H607-bA = biological target: T8, 4H607-bA; test: two-hybrid library CCNG1
4H3606-bA = biological target: T9, 4H3606-bA; test: two-hybrid library CCNG1
4H4001-bA = biological target: T10, 4H4001-bA; test: two-hybrid library CCNG1
4H3354-bA = biological target: T11, 4H3354-bA; test: two-hybrid library CCNG1
4H3782-bA = biological target: T12, 4H3782-bA; test: two-hybrid library CCNG1
4H3855-bA = biological target: T13, 4H3855-bA; test: two-hybrid library CCNG1
4H797-bA = biological target: T14, 4H797-bA; test: two-hybrid library CCNG1
4H687-bA = biological target: T15, 4H687-bA; test: two-hybrid library CCNG1
4H3427-bA = biological target: T16, 4H3427-bA; test: two-hybrid library CCNG1
4H918-bA = biological target: T17, 4H918-bA; test: two-hybrid library CCNG1
4H72-bA = biological target: T18, 4H72-bA; test: two-hybrid library CCNG1
4H967-bA = biological target: T19, 4H967-bA; test: two-hybrid library CCNG1
4H454-bA = biological target: T20, 4H454-bA; test: two-hybrid library CCNG1
4H717-bA = biological target: T21, 4H717-bA; test: two-hybrid library CCNG1
4H331-bA = biological target: T22, 4H331-bA; test: two-hybrid library CCNG1
4H370-bA = biological target: T23, 4H370-bA; test: two-hybrid library CCNG1
4H462-bA = biological target: T24, 4H462-bA; test: two-hybrid library CCNG1
P6-AA-1HGe-T = biological target: T25, P6-AA-1HGe-T; test: two-hybrid library CCmax; conditions: mean of both orientations
P6-AA-1HGe-W = biological target: T26, P6-AA-1HGe-W; test: two-hybrid library CCmax; conditions: mean of both orientations
P6-AA-1HGe-S = biological target: T27, P6-AA-1HGe-S; test: two-hybrid library CCmax; conditions: mean of both orientations
P6-AA-1HGe-A = biological target: T28, P6-AA-1HGe-A; test: two-hybrid library CCmax; conditions: mean of both orientations
P6-AA-1HGe-R = biological target: T29, P6-AA-1HGe-R; test: two-hybrid library CCmax; conditions: mean of both orientations
P6-AA-1HGe-M = biological target: T30, P6-AA-1HGe-M; test: two-hybrid library CCmax; conditions: mean of both orientations

| interaction score (4H953-bA) | interaction score (4H3843-bA) | interaction score (4H568-bA) | interaction score (4H883-bA) | interaction score (4H607-bA) | interaction score (4H4001-bA) | interaction score (4H3782-bA) | interaction score (4H797-bA) | interaction score (4H687-bA) | interaction score (4H918-bA) | interaction score (4H72-bA) | interaction score (4H967-bA) | interaction score (4H370-bA) | Binder | other results |
| --- | --- | --- | --- | --- | --- | --- | --- | --- | --- | --- | --- | --- | --- | --- |
| -1.28 | 0.72 | -0.11 | -0.483 | -1.42 | 0.0797 | -0.0209 | -0.644 | -0.899 | -0.884 | 1.23 | -1.16 | -0.724 | DEIAQLEQKIAELKQEIAELKWENAQLEQ [4H331-bA] | interaction score (4H338-bA): -0.867; interaction score (4H908-bA): -1.83; interaction score (4H754-bA): -0.893; interaction score (4H3606-bA): -0.929; interaction score (4H3354-bA): -0.749; interaction score (4H3855-bA): 0.317; interaction score (4H3427-bA): 0.677; interaction score (4H454-bA): 0.885; interaction score (4H717-bA): -1.06; interaction score (4H331-bA): -0.244; interaction score (4H462-bA; mean of both orientations): -0.426 |
| 0.309 | -0.812 | -0.435 | 0.708 | -0.936 | -0.523 | 0.289 | -1.09 | -0.711 | -0.427 | -2.04 | 0.947 | 1.25 | DKNAQLKQEIAELEQENAELEWKIAQLKQ [4H3606-bA] | interaction score (4H3606-bA; mean of both orientations): -0.112; interaction score (4H462-bA): -1.18 |
|  |  |  |  |  |  |  |  |  |  |  |  |  | DENAALEAHIAALHAKNAALKAEIAALEG [P5-AA-1HGe-H] | interaction score (P6-AA-1HGe-T): 1.88; interaction score (P6-AA-1HGe-W): 0.42; interaction score (P6-AA-1HGe-S): 1.02; interaction score (P6-AA-1HGe-A): 1.88; interaction score (P6-AA-1HGe-R): 1.63; interaction score (P6-AA-1HGe-M): 1.95 |
